Measured values taken from patent US9976134B2, “Thermolysin variants” (Danisco US Inc., priority 2007, dated 2018).

B1: I156T: single-substitution thermolysin variant (SEQ ID NO:3 numbering) (protein, listed as Geobacillus caldoproteolyticus)
chain: ITGTSTVGVGRGVLGDQKNINTTYSTYYYLQDNTRGNGIFTYDAKYRTTLPGSLWADADNQFFASYDAPAVDAHYYAGVTYDYYKNVHNRLSYDGNNAAIRSSVHYSQGYNNAFWNGSQMVYGDGDGQTFIPLSGGIDVVAHELTHAVTDYTAGLTYQNESGAINEAISDIFGTLVEFYANKNPDWEIGEDVYTPGISGDSLRSMSDPAKYGDPDHYSKRYTGTQDNGGVHINSGIINKAAYLISQGGTHYGVSVVGIGRDKLGKIFYRALTQYLTPTSNFSQLRAAAVQSATDLYGSTSQEVASVKQAFDAVGVK
B2: T049Q: single-substitution thermolysin variant (SEQ ID NO:3 numbering) (protein, listed as Geobacillus caldoproteolyticus)
chain: ITGTSTVGVGRGVLGDQKNINTTYSTYYYLQDNTRGNGIFTYDAKYRTQLPGSLWADADNQFFASYDAPAVDAHYYAGVTYDYYKNVHNRLSYDGNNAAIRSSVHYSQGYNNAFWNGSQMVYGDGDGQTFIPLSGGIDVVAHELTHAVTDYTAGLIYQNESGAINEAISDIFGTLVEFYANKNPDWEIGEDVYTPGISGDSLRSMSDPAKYGDPDHYSKRYTGTQDNGGVHINSGIINKAAYLISQGGTHYGVSVVGIGRDKLGKIFYRALTQYLTPTSNFSQLRAAAVQSATDLYGSTSQEVASVKQAFDAVGVK
B3: I156W: single-substitution thermolysin variant (SEQ ID NO:3 numbering) (protein, listed as Geobacillus caldoproteolyticus)
chain: ITGTSTVGVGRGVLGDQKNINTTYSTYYYLQDNTRGNGIFTYDAKYRTTLPGSLWADADNQFFASYDAPAVDAHYYAGVTYDYYKNVHNRLSYDGNNAAIRSSVHYSQGYNNAFWNGSQMVYGDGDGQTFIPLSGGIDVVAHELTHAVTDYTAGLWYQNESGAINEAISDIFGTLVEFYANKNPDWEIGEDVYTPGISGDSLRSMSDPAKYGDPDHYSKRYTGTQDNGGVHINSGIINKAAYLISQGGTHYGVSVVGIGRDKLGKIFYRALTQYLTPTSNFSQLRAAAVQSATDLYGSTSQEVASVKQAFDAVGVK
B4: T278M: single-substitution thermolysin variant (SEQ ID NO:3 numbering) (protein, listed as Geobacillus caldoproteolyticus)
chain: ITGTSTVGVGRGVLGDQKNINTTYSTYYYLQDNTRGNGIFTYDAKYRTTLPGSLWADADNQFFASYDAPAVDAHYYAGVTYDYYKNVHNRLSYDGNNAAIRSSVHYSQGYNNAFWNGSQMVYGDGDGQTFIPLSGGIDVVAHELTHAVTDYTAGLIYQNESGAINEAISDIFGTLVEFYANKNPDWEIGEDVYTPGISGDSLRSMSDPAKYGDPDHYSKRYTGTQDNGGVHINSGIINKAAYLISQGGTHYGVSVVGIGRDKLGKIFYRALTQYLTPMSNFSQLRAAAVQSATDLYGSTSQEVASVKQAFDAVGVK
B5: Q273Y: single-substitution thermolysin variant (SEQ ID NO:3 numbering) (protein, listed as Geobacillus caldoproteolyticus)
chain: ITGTSTVGVGRGVLGDQKNINTTYSTYYYLQDNTRGNGIFTYDAKYRTTLPGSLWADADNQFFASYDAPAVDAHYYAGVTYDYYKNVHNRLSYDGNNAAIRSSVHYSQGYNNAFWNGSQMVYGDGDGQTFIPLSGGIDVVAHELTHAVTDYTAGLIYQNESGAINEAISDIFGTLVEFYANKNPDWEIGEDVYTPGISGDSLRSMSDPAKYGDPDHYSKRYTGTQDNGGVHINSGIINKAAYLISQGGTHYGVSVVGIGRDKLGKIFYRALTYYLTPTSNFSQLRAAAVQSATDLYGSTSQEVASVKQAFDAVGVK
B6: T049L: single-substitution thermolysin variant (SEQ ID NO:3 numbering) (protein, listed as Geobacillus caldoproteolyticus)
chain: ITGTSTVGVGRGVLGDQKNINTTYSTYYYLQDNTRGNGIFTYDAKYRTLLPGSLWADADNQFFASYDAPAVDAHYYAGVTYDYYKNVHNRLSYDGNNAAIRSSVHYSQGYNNAFWNGSQMVYGDGDGQTFIPLSGGIDVVAHELTHAVTDYTAGLIYQNESGAINEAISDIFGTLVEFYANKNPDWEIGEDVYTPGISGDSLRSMSDPAKYGDPDHYSKRYTGTQDNGGVHINSGIINKAAYLISQGGTHYGVSVVGIGRDKLGKIFYRALTQYLTPTSNFSQLRAAAVQSATDLYGSTSQEVASVKQAFDAVGVK

Legend:
[1] = TIDE 2X 0.78 g/l, 6 gpg, pH 8.2, 30 min at 20°C, A405; variant vs wild-type thermolysin at same protein concentration
Experimental: Thermolysin containing protease samples were obtained from filtered broth of cultures grown in microtiter plates for 3 days at 37° C. with shaking at 280 rpm under humidified aeration.
• Thermolysin containing culture supernatants (˜100-200 μg protein per ml) • TIDE® 2× (nil enzymes) detergent (P&G) • Dilution Buffer (10 mM NaCl, 0.1 mM CaCl2, 0.005% TWEEN®-80) The equipment used was a Biomek FX Robot (Beckman Coulter), a SpectraMAX MTP Reader (type 340; Molecular Devices), and an iEMS incubator/shaker (Thermo/Labsystems). MTPs were obtained from Costar (type 9017). TIDE® 2× Liquid Detergent Preparation (US Conditions):
Milli-Q water was adjusted to 6 gpg water hardness using a (Ca/Mg 3:1) hardness stock solution (282.3 g/L CaCl2.2H20, 130.1 g/L MgCl2.6H2O), 0.78 g/1 detergent TIDE® 2× was added, and the detergent solution was stirred vigorously for at least 15 minutes. Then, 5 mM HEPES was added and the pH adjusted to 8.2.
Microswatches of ¼ inch circular diameter were obtained from CFT (Vlaardingen, The Netherlands).
Two microswatches were placed vertically into each well of a 96-well microtiter plate to expose the whole surface area (i.e., not flat on the bottom of the well).
The incubator was set to 20° C. The filtered culture broth samples were tested at an appropriate concentration by dilution with a mixture of 10 mM NaCl, 0.1 mM CaCl2, 0.005% TWEEN®-80 solution. The detergent solution was prepared as described above. Then, 190 μl of detergent solution were added to each well of the MTP, containing microswatches. To this mixture, 10 μl of diluted enzyme solution were added to each well (to provide a total volume of 200 μl/well). The MTP was covered with a plate seal and placed in an incubator for 30 minutes at 20° C., with agitation at 1400 rpm (iEMS incubator). Following incubation under the appropriate conditions, 100 μl of solution from each well was removed and placed into a new MTP. Subsequently this MTP, containing 100 μl of solution/well, was read at 405 nm in a MTP-Reader. Blank controls, containing 2 microswatches/well and detergent, without the addition of thermolysin containing samples, were also included in the test.
The observed absorbance value was corrected for the blank value (obtained after incubation of microswatches in the absence of added enzyme). The resulting absorbance was a measure for the hydrolytic activity. For each sample (thermolysin or a variant) the performance index (PI) was calculated. The performance index is a comparison of the performance of the variant (actual value) and the standard thermolysin enzyme (theoretical value) at the same protein concentration. In addition, the theoretical values were calculated, using the parameters of the Langmuir equation of the standard enzyme.
C. Stability Assay in the Presence of Detergent
In this example, experiments were conducted to determine the stain removal performance of various singly substituted thermolysin (also referred to herein as Proteinase-T or PrT) variants. As described in Example 1, the stain cleaning performance of thermolysin variants was done utilizing a blood/milk/ink (BMI) microswatch assay. Briefly the cleaning performance of chosen single-substitution thermolysin variants was assessed in a TIDE® 2× microswatch assay.

[2] = Stability assay in 25% TIDE 2X detergent with DTPA (residual Abz-AGLA-Nba protease activity); type: physicochemical; details: 60 min at 32°C; variant residual AGLA activity divided by wild-type residual activity
Summary of the method: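 Thermolysin variant culture supernatants stressed in TIDE 2× detergent, with or without DTPA: 60 min at 32° C or 180 min at 50° C. Residual versus unstressed activity on Abz-AGLA-Nba read kinetically at 25° C (Ex 350/Em 420). Performance index is variant residual activity divided by wild-type thermolysin residual activity.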

[3] = Stability assay in 25% TIDE 2X detergent without DTPA (residual Abz-AGLA-Nba protease activity); type: physicochemical; details: 180 min at 50°C; variant residual AGLA activity divided by wild-type residual activity
Experimental: The stability of thermolysin and variants thereof was measured after incubation under defined conditions in the presence of 25% TIDE® 2× detergent. The initial and residual activity was determined.
MTPs were obtained from Costar (type 9017) and from Greiner (black plate, type 655076). Test Method Unstressed Conditions:
First, 20 μl thermolysin containing culture supernatant was diluted with 180 μl MES assay buffer. Then, 20 μl diluted supernatant was diluted further with 180 μl MES assay buffer. Subsequently 10 μl of this dilution was transferred into 190 μl AGLA-substrate solution in a pre-warmed plate (Greiner 655076) at 25° C. Any air bubbles present were blown away and the plate was measured according to the AGLA protease assay protocol described below.
First, 20 μl of culture supernatant was diluted with 180 μl 27.5% TIDE®+detergent solution and placed in the iEMS shaker. The plate covered with a plate seal was incubated for a total of 60 minutes at 32° C. at 900 rpm. In addition, 20 μl of culture supernatant was diluted with 180 μl 27.5% TIDE®−solution and placed in the iEMS shaker. This plate covered with a plate seal was incubated for a total of 180 minutes at 50° C. at 900 rpm.
Subsequently after the respective incubations, 20 μl of either of these solutions were diluted with 180 μl MES assay buffer and 10 μl of this dilution were diluted with 190 μl AGLA-substrate solution in a pre-warmed plate (Greiner 655076) at 25° C.
Fluorescence measurements were taken at excitation of 350 nm and emission of 420 nm. The spectrofluorometer software calculated the reaction rates (=slope) of the increase in fluorescence for each well to a linearly regressed line of (milli-) RFU/min. The ratio of the residual and initial AGLA activity was used to express the 25% TIDE® 2× stability as follows: Percentage of residual activity=[slope of stressed]*100/[slope of unstressed]
For each sample (thermolysin and variants thereof) the performance index was calculated by dividing the residual activity of the variant by the residual activity of thermolysin. The performance index compared the stability of the variant and the standard thermolysin enzyme (e.g., wild type or parental enzyme), determined under the same conditions.
In these experiments, the liberation of Abz-AG by protease cleavage of Abz-AGLA-Nba was monitored by fluorescence spectrometry (Ex. 350/Em. 420). The rate of appearance of Abz-AG was a measure of proteolytic activity.
The Abz-AGLA-Nba assay solution was prepared by adding 1 ml of the Abz-AGLA-Nba stock to 19 ml MES substrate buffer and mixed well for at least 2 minutes. Subsequently the thermolysin or variants thereof containing culture supernatants were diluted with MES assay buffer to a concentration of 1-6 μg protein per ml.
The assay was performed by adding 10 μl of diluted protease solution to each well, followed by the addition of 190 μl Abz-AGLA-Nba assay solution that was pre-equilibrated for at least 15 minutes at 25° C. The solutions were vigorously mixed, and the liberation of Abz-AG by protease cleavage of Abz-AGLA-Nba was monitored by fluorescence spectrometry at 25° C. in kinetic mode with excitation set at 350 nm and emission set at 420 nm. The rate of appearance of Abz-AG was a measure of proteolytic activity in the samples. The protease activity was expressed as RFU (relative fluorescence units·min^−1).
As described in Example 1, the stability of thermolysin variants was measured by determining the AGLA activity before and after incubation in the presence of TIDE® 2× heavy duty liquid (HDL) detergent at an elevated temperature. The tables contain the relative stability values compared to wild-type thermolysin, which is the quotient of the variant residual activity divided by the wild-type residual activity. A value greater than one indicates higher stability in the presence of detergent. […]

Molecule | PI (performance index), stain removal [1] | PI (relative stability), 25% TIDE 2X with DTPA [2] | PI (relative stability), 25% TIDE 2X without DTPA [3]
B1 | 1.03 | 1.08 | 
B2 | 1.30 |  | 1.07
B3 | 1.16 | 1.12 | 
B4 | 1.02 | 1.09 | 
B5 | 1.09 | 1.05 | 
B6 | 1.25 | 1.02 | 
